Experimental findings from paper doi:10.1101/634816 are described below.

The target of data set [1] is T1, AtARF5-DBD (Arabidopsis thaliana, UniProt P93024 1-390).
T1 sequence: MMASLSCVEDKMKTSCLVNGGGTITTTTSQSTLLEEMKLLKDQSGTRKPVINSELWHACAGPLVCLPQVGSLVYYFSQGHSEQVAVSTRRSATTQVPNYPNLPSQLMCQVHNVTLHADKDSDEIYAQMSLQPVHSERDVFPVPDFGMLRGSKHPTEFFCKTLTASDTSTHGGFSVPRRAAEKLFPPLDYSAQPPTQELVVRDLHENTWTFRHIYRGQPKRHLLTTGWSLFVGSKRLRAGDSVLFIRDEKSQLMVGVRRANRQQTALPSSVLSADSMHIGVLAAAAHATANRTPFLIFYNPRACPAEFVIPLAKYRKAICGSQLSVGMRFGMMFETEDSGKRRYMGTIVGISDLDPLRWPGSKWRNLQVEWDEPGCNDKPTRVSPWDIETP
Description: Ni-NTA pull-down with SYBR Gold fluorescence.

The target of data set [2] is T1, AtARF5-DBD. Description: Ni-NTA pull-down with SYBR Gold fluorescence. This is another data set of the same source.

Substitutions are numbered along the chain they refer to. Read-outs that look alike come from different tables or passages of the source.

B1: ER7-GG (dsDNA)
DNA 1: CCGGTAGGTTGTCGGCCAAAGGCCGACAACCGGTAGG
DNA 2: CCTACCGGTTGTCGGCCTTTGGCCGACAACCTACCGG
For the molecule B1, the binding result with AtARF5-DBD [1] is given as “binds”.

B2: ER7 (dsDNA)
DNA 1: B1 DNA 1 with G14T, G15C, C23G, C24A
DNA 2: B1 DNA 2 with G14T, G15C, C23G, C24A
In the case of B2, in the data set with AtARF5-DBD [2], the binding result is “binds”.
